From US20180339020A1 come the findings set out here.

For the experiment, the target named is ephrin B3 expressed on CHO cells. In words: inferred by the filing from ELISA, Octet and flow cytometry taken together. In general terms: ELISA stands for enzyme-linked immunosorbent assay.

“wild-type (WT) human EphA4-Fc (Fc fusion)” yielded a concentration that would saturate of over 10 µg/mL.
